B1: C/EBPε(31–53) fused to maltose-binding protein (peptide)
chain: GDMCEHEASIDLSAYIESGEEQL
B2: C/EBPδ(50–72) fused to maltose-binding protein (peptide)
chain: PAMYDDESAIDFSAYIDSMAAVP
B3: C/EBPα peptide (53–75) (peptide)
peptide: GGICEHETSIDISAYIDPAAFND
B4: His6MBP-C/EBPα(53–75) (peptide)
chain: GGICEHETSIDISAYIDPAAFND
B5: C/EBPα(53–75), the degron part of the crystallised fusion (peptide)
chain: GGICEHETSIDISAYIDPAAFND

Columns and labels:
TRIB1(84–372) [1] = target: T1, TRIB1(84–372) (human, UniProt Q96RU8 84-372); assay: ITC
T1 sequence: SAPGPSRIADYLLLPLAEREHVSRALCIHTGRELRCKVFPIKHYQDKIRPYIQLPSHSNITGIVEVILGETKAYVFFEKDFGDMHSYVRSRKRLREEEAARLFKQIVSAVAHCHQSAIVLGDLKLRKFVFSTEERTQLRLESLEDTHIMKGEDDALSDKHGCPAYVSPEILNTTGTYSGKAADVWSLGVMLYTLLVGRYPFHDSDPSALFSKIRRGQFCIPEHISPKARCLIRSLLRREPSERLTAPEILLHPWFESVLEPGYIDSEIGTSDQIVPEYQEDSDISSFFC

TRIB1(84–372) [2] = target: T1, TRIB1(84–372); assay: differential scanning fluorimetry
WT GST-TRIB1(84–372) = target: T2, WT GST-TRIB1(84–372) (human, UniProt Q96RU8 84-372); assay: pull-down
T2 sequence: T1 sequence

[3] = target: T3, TRIB1(84–343), the pseudokinase part of the crystallised fusion (human, UniProt Q96RU8 84-343); assay: crystal structure
T3 sequence: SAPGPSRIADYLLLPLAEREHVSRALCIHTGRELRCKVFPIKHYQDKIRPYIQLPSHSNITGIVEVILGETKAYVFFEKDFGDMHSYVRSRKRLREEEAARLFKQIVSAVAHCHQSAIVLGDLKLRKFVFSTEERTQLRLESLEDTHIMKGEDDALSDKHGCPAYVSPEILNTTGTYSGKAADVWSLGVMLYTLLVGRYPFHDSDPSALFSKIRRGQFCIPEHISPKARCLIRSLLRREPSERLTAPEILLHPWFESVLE

| Binder | binding result (TRIB1(84–372) [1]) | also measured |
| --- | --- | --- |
| B1 | binds |  |
| B2 | binds |  |
| B3 |  | binding result (TRIB1(84–372) [2]): binds |
| B4 | binds | binding result (WT GST-TRIB1(84–372)): binds |
| B5 |  | binding result [3]: binds |

Source: publication doi:10.1101/313767 (bioRxiv, 2018)
